The values that follow are results of earlier work, collected in publication PMC8355678.

The target of data set [1] is CCL2 receptor on monocytes (Homo sapiens) (UniProt P41597).
The target of data set [2] is CXCR3 (Homo sapiens) (UniProt P49682).
Sequence of UniProt P49682 (P49682 whole entry): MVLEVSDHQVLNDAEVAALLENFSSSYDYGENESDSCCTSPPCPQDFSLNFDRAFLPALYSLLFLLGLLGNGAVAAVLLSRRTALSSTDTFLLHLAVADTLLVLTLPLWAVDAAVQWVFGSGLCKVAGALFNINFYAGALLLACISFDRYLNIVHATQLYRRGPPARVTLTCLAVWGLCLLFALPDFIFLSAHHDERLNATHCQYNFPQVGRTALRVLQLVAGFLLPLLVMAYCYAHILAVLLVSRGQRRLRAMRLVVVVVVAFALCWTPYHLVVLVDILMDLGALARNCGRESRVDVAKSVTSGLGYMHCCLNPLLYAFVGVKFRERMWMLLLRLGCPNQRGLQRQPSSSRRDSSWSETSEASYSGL

Sequence of CCL2 (P13500 24-99): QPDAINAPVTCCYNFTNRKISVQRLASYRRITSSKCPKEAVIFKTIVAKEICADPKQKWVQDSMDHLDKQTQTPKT
Sequence of UniProt P41597 (P41597 whole entry): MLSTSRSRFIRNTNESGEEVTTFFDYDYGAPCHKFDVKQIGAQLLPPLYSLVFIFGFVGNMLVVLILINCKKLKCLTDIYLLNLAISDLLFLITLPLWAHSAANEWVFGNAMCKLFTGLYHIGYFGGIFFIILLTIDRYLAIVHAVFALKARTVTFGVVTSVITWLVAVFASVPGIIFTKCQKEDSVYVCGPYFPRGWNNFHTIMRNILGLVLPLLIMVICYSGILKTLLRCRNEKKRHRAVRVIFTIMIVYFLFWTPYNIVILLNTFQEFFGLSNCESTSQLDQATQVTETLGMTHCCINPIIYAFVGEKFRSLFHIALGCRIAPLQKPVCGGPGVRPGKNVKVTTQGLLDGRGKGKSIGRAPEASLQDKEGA

For CCL2 (from UniProt P13500), in data set [1], the Kd (commonly a measure of binding affinity in units of concentration) was 0.77 nM. As for CXCL10 (from UniProt P02778), the Kd in data set [2] is 0.25 nM.
